Experimental findings from US20220251236A1 (Boehringer Ingelheim, published 2022) are described below.

For test [1], the target named is T1, Cyno DLL3-His (cynomolgus monkey, UniProt Q9NYJ7 27-492 (human entry)).
T1 construct: also called cy DLL3; recombinant cyno DLL3-ECD
T1 chain: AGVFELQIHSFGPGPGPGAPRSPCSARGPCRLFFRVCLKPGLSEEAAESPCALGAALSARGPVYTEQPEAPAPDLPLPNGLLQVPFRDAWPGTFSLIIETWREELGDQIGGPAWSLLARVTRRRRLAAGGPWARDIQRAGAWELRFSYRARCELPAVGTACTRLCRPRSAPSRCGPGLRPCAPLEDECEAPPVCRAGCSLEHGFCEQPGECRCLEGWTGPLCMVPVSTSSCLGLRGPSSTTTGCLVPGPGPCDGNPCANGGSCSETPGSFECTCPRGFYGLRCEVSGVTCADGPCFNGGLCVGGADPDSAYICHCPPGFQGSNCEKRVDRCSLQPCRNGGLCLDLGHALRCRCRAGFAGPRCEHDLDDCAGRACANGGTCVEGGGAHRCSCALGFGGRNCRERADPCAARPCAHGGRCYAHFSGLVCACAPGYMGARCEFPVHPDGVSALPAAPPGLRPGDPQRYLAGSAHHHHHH
As to the kind of experiment: SPR; ratio of the KD values for human and cyno DLL3. Here is the method:
(§1) The binding affinity of purified DLL3/CD3 bispecific constructs for recombinant human and cyno DLL3-ECD and Fc-fusion proteins of human and cyno CD3 εγ subunits was determined by Surface Plasmon Resonance (SPR), using a ProteOn XPR36 instrument (Bio-Rad). The running buffer and all dilutions (except where stated) were done in PBS-T-EDTA. The GLM sensor chip (Bio-Rad) was normalized and pre-conditioned as per the manufacturer's recommendations. The sensor chip was activated with equal mixture of EDC/s-NHS in the horizontal direction for 300 sec at a flow rate of 30 ul/min and immobilized with protein A/G (20 ug/ml in 10 mM acetate pH 4.5) in the horizontal direction for 300 sec at a flowrate of 30 ul/min resulting in ˜5000 RU of protein A/G on the surface. The sensor chip was deactivated with 1M ethanolamine HCl in the horizontal direction for 300 sec at a flowrate of 30 μl/min.
(§2) For binding kinetic determination to DLL3, bispecific molecules were captured individually on the protein A/G surface vertically for 250 sec at a flowrate of 25 μl/min. The baseline was stabilized by injecting PBS-T-EDTA for 60 sec at a flowrate of 40 μl/min horizontally. The analyte (hu DLL3 or cy DLL3) was injected horizontally over the captured antibody for 600 sec at a flowrate of 40 μl/min and a dissociation for 2700 sec.
(§3) The inter spot (interactions with sensor surface) and blank (PBS-T-EDTA) were subtracted from the raw data.

For test [2], the target named is T2, Human CD3 E+G HuFc-6xHis (human).
T2 construct: also called hu CD3εγ-Fc
Put plainly: SPR (ProteOn XPR36), CD3εγ-Fc amine-coupled, bispecific as analyte, equilibrium fit, Example 4A. As for the experimental part: as §1
For binding kinetic determination to CD3, hu CD3εγ-Fc and cy CD3εγ-Fc (dissolved in pH 4.5 acetate) was immobilized directly onto the sensor surface through amine coupling for 140 sec at a flowrate of 30 μl/min vertically. The baseline was stabilized by injecting PBS-T-EDTA for 60 sec at a flowrate of 40 μl/min horizontally. The analyte (the bispecific molecule) was injected horizontally over the captured CD3εγ-Fc construct for 600 sec at a flowrate of 40 μl/min and a dissociation for 600 sec.
as §3

In test [3] the target is T3, chicken egg white lysozyme (chicken, UniProt P00698 19-147).
T3 construct: also called Lysozyme (positive)
Put plainly: SPR (Biacore T200), lysozyme coupled to CM5 chip, non-specific binding assay. As for the experimental part: The experiment was performed on a Biacore T200. The dilution, surface preparation, and binding experiments were performed at 25° C. in 1×HBS-EP buffer prepared from 10× HBS-EP. The flow rate for both the immobilization protocol and binding experiment was at 5 μL/min.
To prepare the surface for the non-specific binding experiment, chicken egg white lysozyme and trypsin inhibitor from glycine max soybean were coupled manually to a series S CM5 chip with the surface density of 3000-5000 RU using the amine coupling kit according to the manufacture instructions.
Samples were prepared at 1 μM in 1×HBS-EP buffer. The samples were injected over activated surfaces with a 10 min association and 10 min dissociation. The data was collected using Biacore T200 Control Software version 2.0.1 and analyzed using Biacore T200 Evaluation Software version 3.0.

Test [4] addresses T4, human DLL3 (endogenous, on SCLC cell lines NCI-H82 and SHP77 and in SCLC tissue) (human, UniProt Q9NYJ7 27-618).
T4 sequence (looked up): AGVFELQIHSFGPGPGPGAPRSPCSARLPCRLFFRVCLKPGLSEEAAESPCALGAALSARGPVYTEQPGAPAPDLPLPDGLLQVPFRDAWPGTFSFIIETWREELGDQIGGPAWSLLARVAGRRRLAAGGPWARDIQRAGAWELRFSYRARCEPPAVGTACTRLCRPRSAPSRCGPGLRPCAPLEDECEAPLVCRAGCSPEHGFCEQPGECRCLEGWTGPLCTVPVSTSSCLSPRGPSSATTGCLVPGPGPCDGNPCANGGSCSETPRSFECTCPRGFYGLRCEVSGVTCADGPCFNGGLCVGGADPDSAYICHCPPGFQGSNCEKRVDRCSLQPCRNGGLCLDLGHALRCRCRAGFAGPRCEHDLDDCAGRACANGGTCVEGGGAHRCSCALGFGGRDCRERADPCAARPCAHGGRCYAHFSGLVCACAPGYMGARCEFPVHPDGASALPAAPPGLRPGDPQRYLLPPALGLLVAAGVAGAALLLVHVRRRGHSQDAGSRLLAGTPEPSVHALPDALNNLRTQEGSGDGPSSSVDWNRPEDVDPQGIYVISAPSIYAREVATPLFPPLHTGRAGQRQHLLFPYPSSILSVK
Put plainly: cell-based or functional assay.

The target of test [5] is T4, human DLL3 (endogenous, on SCLC cell …). Put plainly: cell-based or functional assay. The source holds these as a separate data set.
The target of test [6] is T1, Cyno DLL3-His. Put plainly: SPR (ProteOn XPR36), bispecific captured on protein A/G, DLL3 as analyte, Example 4A. As for the experimental part:
as §1, §2, §3

T3 sequence (P00698 19-147): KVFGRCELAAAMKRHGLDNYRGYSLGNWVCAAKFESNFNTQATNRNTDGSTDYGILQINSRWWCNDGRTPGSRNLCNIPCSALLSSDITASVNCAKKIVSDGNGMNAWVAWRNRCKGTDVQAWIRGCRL
T2 sequence (chain, as listed by the source limits assumed): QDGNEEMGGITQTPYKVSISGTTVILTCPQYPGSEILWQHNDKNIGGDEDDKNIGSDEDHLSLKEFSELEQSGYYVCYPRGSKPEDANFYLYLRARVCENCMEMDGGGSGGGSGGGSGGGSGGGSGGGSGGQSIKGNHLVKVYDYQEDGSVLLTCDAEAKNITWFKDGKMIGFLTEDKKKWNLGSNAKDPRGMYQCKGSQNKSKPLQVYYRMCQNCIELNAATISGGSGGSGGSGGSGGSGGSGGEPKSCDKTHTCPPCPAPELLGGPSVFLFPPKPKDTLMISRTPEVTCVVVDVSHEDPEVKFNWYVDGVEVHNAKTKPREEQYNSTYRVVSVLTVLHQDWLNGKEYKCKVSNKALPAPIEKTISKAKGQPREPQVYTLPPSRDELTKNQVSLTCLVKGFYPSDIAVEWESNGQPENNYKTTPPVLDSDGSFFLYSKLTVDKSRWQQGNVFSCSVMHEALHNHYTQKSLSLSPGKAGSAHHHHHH

B1: DLL3#3/CD3#2 (bispecific antibody, human IgG1, kappa, lambda, L234A L235A)
chain 1: DIQMTQSPSAMSASVGDRVTITCRASQGISNYLVWFQQKPGKAPKRLIYAVSSLYSGVPSRFSGSGSGTEFTLTISSLQPEDFATYYCLQHDSYPYTFGQGTKLEIKRTVAAPSVFIFPPSDEQLKSGTASVVCLLNNFYPREAKVQWKVDNALQSGNSQESVTEQDSKDSTYSLSSTLTLSKADYEKHKVYACEVTHQGLSSPVTKSFNRGECGGGGSEGKSSGSGSESKSTEGKSSGSGSESKSTGGGGSQVQLVQSGAEVKKPGASVKVSCKASGYTFTSYYVHWVRQAPGQGLEWMVIINPGGGTTSYAQKFLGRVTMTRDTSTNTVYMELKSLRSEDTAVYYCARGEAVTGNYFYYGMDVWGQGTTVTVSSASTKGPSVFPLAPSSKSTSGGTAALGCLVKDYFPEPVTVSWNSGALTSGVHTFPAVLQSSGLYSLSSVVTVPSSSLGTQTYICNVNHKPSNTKVDKRVEPKSCDKTHTCPPCPAPEAAGGPSVFLFPPKPKDTLMISRTPEVTCVVVDVSHEDPEVKFNWYVDGVEVHNAKTKPREEQYNSTYRVVSVLTVLHQDWLNGKEYKCKVSNKALPAPIEKTISKAKGQPREPQVYTLPPSREEMTKNQVSLWCLVKGFYPSDIAVEWESNGQPENNYKTTPPVLDSDGSFFLYSKLTVDKSRWQQGNVFSCSVMHEALHNHYTQKSLSLSPG
chain 2: EAVVTQEPSLTVSPGGTVTLTCRSSTGAVTTSNYANWVQEKPGQLPRGLIGGTNKRAPWVPARFSGSLLGGKAALTLSGAQPEDEAEYFCALWYSNLWVFGGGTKLTVLGQPKAAPSVTLFPPSSEELQANKATLVCLISDFYPGAVKVAWKADGSPVNTGVETTTPSKQSNNKYAASSYLSLTPEQWKSHRSYSCQVTHEGSTVEKTVAPAECSGGGGSEGKSSGSGSESKSTEGKSSGSGSESKSTGGGGSEVQLVESGGGLVQPGGSLKLSCAASGFTFNTYAMNWVRQAPGKGLEWVARIRSKYINYATYYADSVKDRFTISRDDSKNTAYLQMNNLKTEDTAVYYCVRHGNFGNSYVSWFAYWGQGTLVTVSAASTKGPSVFPLAPSSKSTSGGTAALGCLVKDYFPEPVTVSWNSGALTSGVHTFPAVLQSSGLYSLSSVVTVPSSSLGTQTYICNVNHKPSNTKVDKRVEPKSCDKTHTCPPCPAPEAAGGPSVFLFPPKPKDTLMISRTPEVTCVVVDVSHEDPEVKFNWYVDGVEVHNAKTKPREEQYNSTYRVVSVLTVLHQDWLNGKEYKCKVSNKALPAPIEKTISKAKGQPREPQVYTLPPSREEMTKNQVSLSCAVKGFYPSDIAVEWESNGQPENNYKTTPPVLDSDGSFFLVSKLTVDKSRWQQGNVFSCSVMHEALHNRFTQKSLSLSPG
notes: Heterodimer of one DLL3 chain and one CD3 chain (scFab-Fc, knob-in-hole)
On to B1, for which, in test [1], the “Affinity gap KD hu/cyno DLL3” value turned out to be 1. The same molecule gave a Kd in test [2] of 90 nM. The binding result in test [3] is listed as “no binding (tested: 1 µM)”. In addition, in test [4], the “EC90, 72 hour cytotoxicity assay, purified T cells as effector cells, NCI-H82 target cells” value came out at 2.5 nM and the “EC90, 72 hour cytotoxicity assay, purified T cells as effector cells, SHP77 target cells” value came to 3 nM. In addition, in test [5], the “EC90, 72 hour cytotoxicity assay (LDH release), non-stimulated PBMCs as effector cells, NCI-H82 target cells” value was 3.9 nM and the “EC90, 72 hour cytotoxicity assay (LDH release), non-stimulated PBMCs as effector cells, SHP77 target cells” value amounted to 16.5 nM. Besides, in test [6], the Kd is less than 0.01 nM.
